# In article PMC11394972 (International Journal of Molecular Sciences, 2024):
# B1: MazF-mt3 (tag-removed form used for crystallization) (enzyme)
# chain: GPELMVISRAEIYWADLGPPSGSQPAKRRPVLVIQSDPYNASRLATVIAAVITSNTALAAMPGNVFLPATTTRLPRDSVVNVTAIVTLNKTDLTDRVGEVPASLMHEVDRGLRRVLDL
# Tests used:
# crystal structure = biological target: the molecule itself; assay: crystal structure
# [1] = biological target: B1; assay: crystal structure; conditions: both partners purified
Binder,stoichiometry N (crystal structure) [subunits in the oligomer],stoichiometry N [1]
B1,2,–
LTGQIDRALESIHGTDEAEALAVANAYRVLETMDDEW [MazE-mt3 (Leu46-Trp82) peptide],–,2 toxin chains per antitoxin chain
